According to paper PMC12439769, “Case of Nisin Oral Ingestion and its LC-MS/MS Detection in Human Urine Over Time: A Case Report” (Archives of clinical and medical case reports, 2025):
No end group written: not given here.

Tests used:
[1] = oral ingestion, encapsulated nisin and nisin powder groups, at 24, 48 and 72 hours; mass spectrometry; cited from earlier work
Excerpt: Like other reports of nisin detection with LC-MS/MS, this project employed similar methods to successfully detect nisin and its fragments in urine samples [44–49]. The ongoing clinical trial (ClinicalTrials.gov; NCT06097468) of nisin in oral cancer patients and studies with larger sample sizes will be helpful to furthe ...

[2] = Tolerability of oral ingestion of nisin; type: in vivo, human; settings: 20 grams in total, two doses of 10 grams/150 ml of water at noon and 6 pm; one healthy person
Experimental: (§1) Nisin ZP (Handary S.A; Brussels, Belgium) was ingested by a healthy volunteer. […] Sterile urine was then collected at 4 pm (Sample 1) and 8 pm (Sample 2) on the first day of ingestion, and at 6 am (Sample 3), 8 am (Sample 4), 3:30 pm (Sample 5), and 9 pm (Sample 6) the next day. Urine samples were frozen at −80°C immediately upon collection (Table 1).

[3] = cited from earlier work
Experimental: (§2) Nisin mediates its action in part by interactions with phospholipid bilayers on cellular membranes. Prior pharmacokinetic and pharmacodynamic information indicate that nisin can be absorbed via epithelial tissues. Nisin can be absorbed through the vaginal epithelium into the circulation following intravaginal administration in rabbits. Maximum levels of nisin were detected in blood samples after 1 h of treatment. […] Further, Dreyer et al. reported the migration of nisin a ...

[4] = test system: gastrointestinal epithelial and vascular endothelial cells; settings: in vitro; ref 35 (Dreyer et al.); cited from earlier work
Experimental: as §2

[5] = Western blotting of nisin in urine samples after oral ingestion; type: in vivo, human
Experimental: as §1
The urine samples were filtered using a 10 kDa MWCO Amicon® ultra centrifugal filter (Cat No: UFC201024, Millipore). The filtrate was used to analyze nisin, while the top retained fraction was used to check for potential nisin-binding proteins that might bind to and shift nisin to a higher molecular weight.
Western blot analyses were performed on the filtrate and top fractions from the urine samples to detect nisin and nisin binding proteins, respectively. Samples were normalized by equal protein concentration (125 μg) and then mixed with 4X Laemmli sample buffer (Cat. No. 1610747, Bio-Rad) containing β-ME (3:1). The proteins were resolved by 16% Tricine SDS-PAGE (Invitrogen, Cat No. EC6695) then transferred to Immobilon-P membranes. The blots were probed with a custom polyclonal affinity-purified rabbit nisin antibody (proprietary to Kapila lab). The antibody against nisin was produced by co-immunizing rabbits with four short nisin peptide sequences (Pacific Immunology, Ramona, CA). Blots were incubated with horseradish peroxidase-conjugated anti-rabbit antibody (SC-2004, Santa Cruz Biotechnology) and then developed with the ECL-plus detection system (Thermo Fisher Scientific).

[6] = LC-MS/MS (PRM) detection of nisin in human urine after oral ingestion; type: in vivo
Experimental: as §1
Six urine samples, including both standard and nisin-spiked samples, were thawed/prepared then centrifuged at 4000×g to pellet large solute materials/proteins. The supernatant from each sample was then filtered using a 10 kDa MWCO Amicon® Ultra Centrifugal Filter to further remove larger protein molecules. The filtered urine was lyophilized under stringent conditions (−50 °C and 0.1 Torr) for 48 hours to ensure complete dryness. The lyophilized cake was resuspended in 0.1% Trifluoroacetic Acid (TFA) for sample homogenization. A subsequent centrifugation step at 12000×g for 5 minutes allowed for the separation of any remaining particulate matter, with the supernatant being carefully transferred into a clean tube. The supernatant underwent desalting using C18 Stage Tips, which were prepared by equilibration in 1% TFA and 50% Acetonitrile (ACN), followed by a washing solution of 5% ACN and 0.1% TFA, and an elution in 40% ACN with 0.1% TFA. The peptides eluted were vacuum dried and then resuspended in 5% Formic Acid (FA).
Nisin peptide abundance was measured using liquid chromatography coupled to mass spectrometry (LC-MS/MS). After reconstitution in formic acid, the samples were fractionated online by C18 reversed phase chromatography using a Dionex U3000 HPLC to deliver an increasing gradient of acetonitrile. Peptides were eluted and electrosprayed directly in a Thermofisher Fusion Lumos mass spectrometer. Data were acquired using a parallel reaction monitoring strategy in which the +5 precursor ion of full-length nisin was analyzed by MS/MS [51]. The precursor and fragment ion masses for +5 charge state of nisin utilized for Parallel Reaction Monitoring are shown in Table 2. Extracted ion chromatograms were generated for each fragment ion using the Skyline software package. The area under the curve for each fragment ion was summed to calculate an estimate of nisin abundance.

[7] = rabbits, intravaginal administration

For “Nisin ZP: Natural bacteriocin made by Lactococcus lactis, food preservative; Nisin ZP from Handary S.A, Brussels, Belgium (ITSISLCTPGCKTGALMGCNMKTATCNCSIHVSK; also: lantibiotic nisin-Z: thioether rings and dehydro residues not placed; UniProt P29559 24-57, looked up)”, the “Integrity of nisin passing through the porcine gastrointestinal tract” value [1] is listed as “remains intact”, the “Tolerability of oral ingestion” value [2] is listed as “well tolerated without any adverse events” and the “Stability in the harsh conditions of the gastric environment” value [3] is listed as “partially stable”. For the same substance, the “Time at which blood levels declined to baseline” value [3, 7] was 12 h, the “Time of maximum levels of nisin in blood samples” value [3, 7] was 1 h and the “Migration across gastrointestinal epithelial and vascular endothelial cells” value [4] was “migration of nisin across gastrointestinal epithelial and vascular endothelial cells”. For the same substance, the “Nisin detection in urine samples 2 through 6 by immunoblotting” value ([5]; <10 kDa filtrate, urine 8–33 h after first ingestion, anti-nisin rabbit polyclonal antibody) was “did not detect”, the “Nisin detection at approximately 3.3 kDa in urine sample 1 by immunoblotting” value ([5]; <10 kDa filtrate, urine 4 h after first ingestion, anti-nisin rabbit polyclonal antibody, 16% Tricine SDS-PAGE) was “detected” and the “High molecular weight nisin-positive band at approximately 40 kDa in urine sample 1” value ([5]; >10 kDa retained fraction, urine 4 h after first ingestion, suggests a potential nisin-binding protein) was “nisin-positive band”. The “Time of maximal nisin levels detected in urine” value ([6]; after first oral 10 g dose, LC-MS/MS, earliest sample collected at 4 h, n = 1 subject) was 4 h, the “Nisin detection in urine samples 1–4 by LC-MS/MS” value ([6]; one healthy person, oral 2 x 10 g/150 ml water at noon and 6 pm, urine 4, 8, 18, 20 h after first ingestion, 10 kDa MWCO filtrate, lyophilized, C18 desalted, PRM of +5 precursor, summed fragment AUC) was “detected” and the “Time window of nisin detection in urine after the first ingestion” value ([6]; oral 10 g/150 ml at noon, second 10 g at 6 pm, LC-MS/MS, n = 1 subject, no urine collected before 4 h) was 4 to 20 h. The “Nisin detection in urine samples 5–6 by LC-MS/MS” value ([6]; same subject and regimen, urine 27.5 and 33 h after first ingestion (21.5 and 27 h after second), PRM of +5 precursor) was “not” and the “Time of nisin detection in urine after the second ingestion” value ([6]; second oral 10 g/150 ml dose at 6 pm, LC-MS/MS, n = 1 subject) was “up to 14 hours”.
